According to US20150004637A1, “SYSTEMS AND METHODS FOR IMAGING AT HIGH SPATIAL AND/OR TEMPORAL PRECISION” (President and Fellows of Harvard College, priority 2011, published 2015):
Entries after “also recorded” stand apart in the source; their conditions may differ.

Key:
[1] = system: cultured rat hippocampal neurons; assay: Optical recording of action potentials in cultured neurons; type: cell-based
Protocol: Arch was tested as a voltage indicator in cultured rat hippocampal neurons, using viral delivery (Methods 10-11). […] Individual spikes were accompanied by clearly identifiable increases of whole-field fluorescence (FIG. 11B). Preferentially weighting pixels whose intensity co-varied with the whole-field fluorescence led to an about 74% improvement in SNR (FIG. 11C). This training procedure made no use of the electrical recording. Training the pixel-weighting algorithm on the electrical recording led to a further 5% increase in SNR. (FIG. 11D).
(11) Neuronal cell culture. E18 rat hippocampi were purchased from BrainBits and mechanically dissociated in the presence of 1 mg/mL papain (Worthington) before plating at 5,000 to 30,000 cells per dish on poly-L-lysine and Matrigel-coated (BD Biosciences) glass-bottom dishes. […] Cells were incubated in N+ medium (100 mL Neurobasal medium, 2 mL B27 supplement, 0.5 mM glutamine, 25 micromolar glutamate, penicillin-streptomycin) for 3 hours. An additional 300 microliter virus medium was added to the cells and incubated overnight, then brought to a final volume of 2 mL N+ medium. After two days, cells were fed with 1.5 mL N+ medium. Cells were fed with 1 mL N+ medium without glutamate at 4 DIV, and fed 1 mL every 3-4 days after. Cells were allowed to grow until 10-14 DIV. […]
Whole-cell current clamp recordings were obtained from mature neurons under the same conditions used for HEK cells recordings. Series resistance and pipette capacitance were corrected. Only neurons having resting potentials between −50 and −70 mV were used in the analysis.
(12) Spike sorting. A spike identification algorithm was developed that could be applied either to electrically recorded V(t) or to optically determined VFL(t). The input trace was convolved with a reference spike. Sections of the convolved waveform that crossed a user-defined threshold were identified as putative spikes. Multiple spikes that fell within 10 ms (a consequence of noise-induced glitches near threshold) were clustered and identified as one.

HEK 293 cells = assay: Arch fluorescence as a function of membrane potential, whole-cell voltage clamp; type: cell-based; settings: for Approx ΔF/F per 100 mV: Table 2, described herein
Protocol: Fluorescence of Arch in HEK 293 cells supplemented with about 5 μM all-trans retinal (See Methods 4) was readily imaged in an inverted fluorescence microscope with red illumination (λ=640 nm, about 20 mW, and about I=540 W/cm^2), a high numerical aperture objective (NA), a Cy5 filter set, and an EMCCD camera (See Methods 5, FIG. 3A). […] Cells not expressing Arch were not fluorescent.
(4) HEK cell culture. HEK-293 cells were grown at 37° C., 5% CO2, in DMEM supplemented with 10% FBS and penicillin-streptomycin. Plasmids were transfected using Lipofectamine and PLUS reagent (Invitrogen) following the manufacturer's instructions, and assayed between 48-72 hours later. The day before recording, cells were re-plated onto glass-bottom dishes (MatTek) at a density of ˜5000 cells/cm^2.
The concentration of endogenous retinal in the HEK cells was not known, so the cells were supplemented with retinal by diluting stock retinal solutions (40 mM, DMSO) in growth medium to a final concentration of 5 micromolar, and then placing the cells back in the incubator for 1-3 hours. All imaging and electrophysiology were performed in Tyrode buffer (containing, in mM: 125 NaCl, 2 KCl, 3 CaCl2, 1 MgCl2, 10 HEPES, 30 glucose pH 7.3, and adjusted to 305-310 mOsm with sucrose). Only HEK cells having reversal potentials between −10 and −40 mV were included in the analysis.
(5) Microscopy. Simultaneous fluorescence and whole-cell patch clamp recordings were acquired on a home-built, inverted epifluorescence microscope, operated at room temperature. One goal was to collect fluorescence with high efficiency, while also achieving a large enough field of view to image an entire neuron and its processes. Typically, microscope objectives offer a tradeoff between magnification and light-gathering capacity (numerical aperture). Additionally, the ability to change magnification while maintaining a patch on a single cell was important in some cases. Typically the vibrations associated with switching objectives—particularly water or oil immersion objectives—are incompatible with simultaneous patch clamp. In addition, in some cases, the capability to split the field of view into two wavelength bands, and to change magnification without changing the registration of the two halves of the image was important.
(6) Electrophysiology. Filamented glass micropipettes (WPI) were pulled to a tip resistance of 3-10 megohm fire polished, and filled with internal solution (containing, in mM: 125 potassium gluconate, 8 NaCl, 0.6 MgCl2, 0.1 CaCl2, 1 EGTA, 10 HEPES, 4 Mg-ATP, 0.4 Na-GTP, pH 7.3; adjusted to 295 mOsm with sucrose). The micropipettes were positioned with a Burleigh PCS 5000 micromanipulator. Whole-cell, voltage clamp recordings were acquired using an AxoPatch 200B amplifier (Molecular Devices), filtered at 2 kHz with the internal Bessel filter, and digitized with a National Instruments PCIE-6323 acquisition board at 10 kHz. […]
(7) Ramp and step-response of Arch WT and D95N. To measure fluorescence as a function of membrane potential, a triangle wave was applied, with amplitude from −150 mV to +150 mV and period 12 s, with video recording at 100 ms per frame. A pixel weight matrix was calculated according to Eq. S2 (below) and applied to the movie images to generate a fluorescence number for each frame. These fluorescence values were divided by their minimum value (at V=−150 mV). […] Background subtraction from the raw fluorescence would have yielded considerably larger values of delta-F/F.

| Molecule | optical signal-to-noise ratio of single electrically triggered action potentials [1] | increase in fluorescence after addition of supplemental retinal ([1]; 10 μM retinal, over 30 minutes, neuron depolarized with CCCP) | signal-to-noise ratio in the fluorescence (spike amplitude:baseline noise) ([1]; 2 kHz frame rate, single trial) | light-induced outward photocurrent in neurons ([1]; I=1800 W/cm^2, total internal reflection mode) | shift of resting potential by photocurrent ([1]; current-clamp, I=1800 W/cm^2) | false-positive rate of spike identification ([1]; n=269 spikes) [%] | spikes correctly identified by spike-finding algorithm ([1]; n=269 spikes, versus simultaneously recorded membrane potential) [%] | r.m.s. deviation between fluorescence and voltage ([1]; pixel weights from correlation to electrophysiology data) [mV] | r.m.s. deviation of fluorescence from electrophysiology data ([1]; pixel weights from correlation to whole-field intensity) [mV] | r.m.s. deviation of fluorescence from electrophysiology data ([1]; whole-field fluorescence, single trial, 500 frames/s) [mV] | Approx ΔF/F per 100 mV (HEK 293 cells) [%] | photobleaching (HEK 293 cells; continuous 10-minute exposure, 640 nm, about 540 W/cm^2, HEK 293 cells) | effect of illumination on membrane potential / spiking in neurons ([1]; I=1800 W/cm^2, λ=640 nm) | greater sensitivity than wild-type (HEK 293 cells) [%] | increase in fluorescence between −150 mV and +150 mV (HEK 293 cells; whole-cell voltage clamp, no background subtraction) |
| --- | --- | --- | --- | --- | --- | --- | --- | --- | --- | --- | --- | --- | --- | --- | --- |
| Archaerhodopsin 3 (protein, Halorubrum sodomense, Microbial rhodopsin from Halorubrum sodomense, light-driven proton pump used as fluorescent voltage indicator; experiments used an Arch-eGFP fusion) MDPIALQAGYDLLGDGRPETLWLGIGTLLMLIGTFYFLVRGWGVTDKDAREYYAVTILVPGIASAAYLSMFFGIGLTEVTVGGEMLDIYYARYADWLFTTPLLLLDLALLAKVDRVTIGTLVGVDALMIVTGLIGALSHTAIARYSWWLFSTICMIVVLYFLATSLRSAAKERGPEVASTFNTLTALVLVLWTAYPILWIIGTEGAGVVGLGIETLLFMVLDVTAKVGFGFILLRSRAILGDTEAPEPSAGADVSAAD | greater than 10 | 30-60% | about 10.5 | about 10 pA | up to −20 mV | 0.7 | 99.6 | 4.0 | 4.2 | 7.3 | 66 | about 17% | – | – | – |
| Arch D95N: Archaerhodopsin 3 with aspartic acid 95 mutated to asparagine; non-pumping voltage indicator (protein, UniProt P96787 7-258, looked up, variant D95N) Archaerhodopsin-3: QAGYDLLGDGRPETLWLGIGTLLMLIGTFYFLVRGWGVTDKDAREYYAVTILVPGIASAAYLSMFFGIGLTEVTVGGEMLDIYYARYANWLFTTPLLLLDLALLAKVDRVTIGTLVGVDALMIVTGLIGALSHTAIARYSWWLFSTICMIVVLYFLATSLRSAAKERGPEVASTFNTLTALVLVLWTAYPILWIIGTEGAGVVGLGIETLLFMVLDVTAKVGFGFILLRSRAILGDTEAPEPSAGADVSAAD | – | – | – | – | – | – | – | – | – | – | 100 | – | did not perturb membrane potential; also recorded: no effect of illumination on spiking or resting potential | 50 | about 3 fold |
